Data taken from the DeepSol protein solubility set.

Test: soluble on expression in E. coli; label from the status in PepcDB or PDB records

Sequence: HFNVLADTPSGLVPLHLRSPQVPAAQQMLNFPEKNKEKPVDLQNFGLRTDIYSKKTLAKSKGASAGREWTEQETLLLLEALEMYKDDWNKVSEHVGSRTQDECILHFLRLPIEDPYLENSDASLGPLAYQPVPFSQSGNPVMSTVAFLASVVDPRVASAAAKAALEEFSRVREEVPLELVEAHVKKVQEAARASGKVDPTYGLESSCIAGTGPDEPEKLEGAEEEKMEADPDGQQPEKAENKVENETDEGDKAQDGENEKNSEKEQDSEVSEDTKSEEKETEENKELTDTCKERESDTGKKKVEHEISEGNVATAAAAALASAATKAKHLAAVEERKIKSLVALLVETQMKKLEIKLRHFEELETIMDREKEALEQQRQQLLTERQNFHMEQLKYAELRARQQMEQQQHGQNPQQAHQHSGGPGLAPLGAAGHPGMMPHQQPPPYPLMHHQMPPPHPPQPGQIPGPGSMMPGQHMPGRMIPTVAANIHPSGSGPTPPGMPPMPGNILGPRVPLTAPNGMYPPPPQQQPPPPPPADGVPPPPAPGPPASAAP
- soluble on expression in E. coli: soluble

Sequence: MSLRDLLLIDHPLCQAVFSRQGAQLLHFQPQGERPLLWCAGEWPALSSAPVRGGIPVCWPWFGSHPNGSEWPQQGWARQREWRLLDAYADESKVVVSWQLDLEDWHVRLDARLGQRLELELCSYHEEDDDCLFSFALQPYWRVGALSRVVVHGMELESARGQRGASRIPGTWIPRGAVKQVLYHPGSLVLEDGGWNRRLRIDKNVSAGSVIWHPGSRPVEQVEPGEAERFLCIGAAGYRPGGLILAPGERMRLSLAAGLQEGHHHHHH
- soluble on expression in E. coli: not soluble

Sequence: MKKWLPAFLFLSLSGCNDALAANQSTMFYSFNDNIYRPQLSVKVTDIVQFIVDINSASSTATLSYVACNGFTWTHGLYWSEYFAWLVVPKHVSYNGYNIYLELQSRGSFSLDAEDNDNYYLTKGFAWDEANTSGQTCFNIGEKRSLAWSFGGVTLNARLPVDLPKGDYTFPVKFLRGIQRNNYDYIGGRYKIPSSLMKTFPFNGTLNFSIKNTGGCRPSAQSLEINHGDLSINSANNHYAAQTLSVSCDVPTNIRFFLLSNTNPAYSHGQQFSVGLGHGWDSIISINGVDTGETTMRWYRAGTQNLTTGSRLYGESSKIQPGVLSGSATLLMILP
- soluble on expression in E. coli: soluble

Sequence: MILRTSEETISTVQEKQQNISPLVRERGPQRVAAHITGTRGRSNTLSSPNSKNEKALGRKINSWESSRSGHSFLSNLHLRNGELVIHEKGFYYIYSQTYFRFQEEIKENTKNDKQMVQYIYKYTSYPAPILLMKSARNSCWSKDAEYGLYSIYQGGIFELKENDRIFVSVTNEHLIDMDHEASFFGAFLVG
- soluble on expression in E. coli: soluble

Sequence: MNFRLSEEHEMLRKMVREFAENEVAPTAAERDEEERFDRGIFNKMAELGLTGIPWPEEYGGIGSDYLAYVIAVEELSRVCASTGVTLSAHISLASWPIYKFGNEEQKQKYLRALATGEKLGAYALSEPGAGSDVASMKTRAVKDGDHYILNGSKVWITNGGEAEIYVVFAVTDPEKRHKGISAFIVEKGTPGFSFGKKEKKLGIRSSPTTELIFEDCRIPKENLLGQEGEGFKIAMMTLDGGRNGIAAQAVGIAQGALDAAVDYAKQRVQFGKPIIEQQGVAFKLADMATAIEAARLLTYQAAWLESNGLPYGKASAMAKLFAGDTAMKVTVEAVQIFGGNGYTKDYPVERFMRDAKITQIYEGTQEIQRLVISRMLTRN
- soluble on expression in E. coli: soluble

Sequence: QIVLTQSPAIMSASLGDRVTMTCTASSSVSSSYLHWYQQKPGSSPKLWIYSTSNLASGVPARFSGSGSGTSYSLTISSMEAEDAATYYCHQFHRSLTFGSGTKLE
- soluble on expression in E. coli: soluble

Sequence: MRKKKDGQNLPDFRKNPPKLDKKAYEKELKRLQAELVDLQQWVVETGARVVIVMEGRDAAGKGSAIKRITQYLNPRSARIEALPTPNSREKGQWYFQRYIEKLPTAGEIVIFDRSWYNRAGVERVMGFCTSQEYRRFLHQAPIFERLLVEDGIHLRKYWFSVSDEEQIERFEDRLSDPLRRWKLSPMDLQSITRWEDYSRAKDEMFIHTDIPSAPWYTVESEDKKRSRINVISHLLSTIPYEKIDRPLPEIPHRPDSESDYVRPPRDEFRYVPDVAAHLEEERIKKEEKAKKAKKPAKAAGKNSDKQKSSGGKGKKKSKK
- soluble on expression in E. coli: not soluble

Sequence: MAEHNELGKAGENAAVAYLEEHGYLIRHRNWRKGHFELDIVAAKENELVIVEVKTRSNTLFAQPEEAVDLPKIKRTVRAADAYMKLFQIDVPVRFDIITVIGENGNFRIDHIKEAFYPPLF
- soluble on expression in E. coli: not soluble

Sequence: MSLKITGFRSLTTVHRWGRPVGDANGFVAQGVTEVPVLLVETDGGLTGVGLGAHGDAERVFPALDGQDPRAVTTLYDRMLAHTFKSGHAGTAFGTIGAFDTALWDLKAKMAGEPLWRTLGAADRFVPGYASGLDIALDEEELVALYSGWAARGFTGAKLKGGLDTERDIGRLRAVAEVLRPNTRSPALMLDVNESWGRHQAVRLLARIEDRVELAWIEEPVRRWDARGHRAVGRAGRTAVASGENLTGLEQFRPLLAADALQVVQAAGVWGITHFLRVATLAHGHDLPVSPVGYHANPLAHAAAAVPNHLVTEVQDIGTPAGLTVDQAIEDGGIVLGDAPGLGITVDESALAAPRQNAGWARPDGPHVRPRDAGLRLVPEPGPPGPAARVRAGTPSLGVPGPVHRPARSEHTERENTPEGHHHHHH
- soluble on expression in E. coli: not soluble

Sequence: MNMPKRYSEMTPHELREEIGALKEQAVKAEQLGIVNEFDVLMRKMAMARAYMTDINKFHIGETYELVEEPGVLFKITYFNGVFAWGYKQNDNEEIGIPISLLQEK
- soluble on expression in E. coli: not soluble

Sequence: MFKSVAKCDKVEKMLLGTFNLTLDNKNRISLPAKLRSFFDSSIVINRGFENCLEIRKPADFESYFQTFNNFPNTQKDTRTLKRLIFANANLVELDSANRILIPNNLISDAKLDKEIVLIGQFDHLEVWDKVQYEQYLASSESLETVAERMKDAK
- soluble on expression in E. coli: soluble

Sequence: MEKQNLPVVVVGAGPVGLAAAAHLVERGIEPLVLEAGASAATAVRDWAHVRLFSPWAEVTDPAAEKLLAPTGWLRPDGATYPTGGDWAERYLQPLADVLGDQVRYGATVTGVARAGRDRIVDSGREEQPFTVHIETADGGEERIAARAVIDAGRRGVRHADRLEHHHHHH
- soluble on expression in E. coli: soluble

Sequence: DNVKYVSSVQRDKELLHAKYGKDIDKAEDVAKEYPSLESIVAKHPDIFVAGWNYGFSEEKNLTPDALKDQGIDSYILSESCRQEGSEKRGLYDPWEAVKMDISNIGKITSHADTADSVVKDIDSRLETLKKAPQADKAPTAFVFDSGTDTVFTSGKFGAPQAIIEAAGGRNGAENVEDTWTTVSWENLAASKPDVFVFVDYPGQEFEEKIAALRSNPATKNLPAVKENRFINLPYAMWTSGPLNIDAAEQMRKGFEKFGLVPSSEIKPSLELPASVPGQNYYK
- soluble on expression in E. coli: not soluble

Sequence: MRRAILWFVALAIASVLAQQSRPASDPQVVEAARKEGRLIIYSSTDQSSAQALLDDFRKLYPFIQIEYNDLGTQAIYDRFVSETAAGASSADLLWSSAMELQVKLASEGYALPYDSPEAKNWPANARLGNLAYSTTLEPAVVVYNKRFLKPEEVPTTREGLARLLQEPRMRGRVATWDPERSAVGFTILKADYDRFPAFQELARAFGKAQAALYSSTGAAFEKVISGEHYLAYGFFGSYALLRQRTVKDLGIAYLTDGTVAIQRVAFINKRAAHPNAAKLFLDYLLSLRGQNLMAYTALIFARRETVVGEATPQALYKAVGGKDKVYAIPVSTEILKNLDPAERMRFLTFWRQAVRGQ
- soluble on expression in E. coli: soluble

Sequence: MDHQLSQHDIFISQDGQLQLTVAVDTETVWLTQAEICVLFDRERSVITKHINNVFKEGELERDSVCAIFARTADDGKTYQTQYFNLDVIISVGYRVKSKRGVQFRQWATNTLKQHLLQGYTLNQQRLVQRGIEFNQALALLSKTLTNQALINPDGQAVVNVIAEYARSWSLLQGYDEQSLTEITHKQQQMQPLALDEVLAAIAALKTNLIAKGEATDLFAQLRGNGLASSIATIEQGFGGEWFYPNVASRAAHLLYFIIKNHPFADGNKRTGSFLFLWYLQQNQHLLAKPVSEQINDTTLVALALLVAESLPDQKELMIRLIEHFILLKDSEAAALEHHHHHH
- soluble on expression in E. coli: soluble

Sequence: MRFIPLIVARPEVQMAIDEAILIARSEGRVPDTVRLYVFKPSSVTIGRFQSVRYDVNLEKAKELGIPVVRRITGGGSVFHDEYGEITYSVVISEDYHPMLKNIQDSYRFLAGPLVDALKDLGIEAEFSGLNDIVVRGKKISGSAQTRRRGIILQHGTLMYATRLEILGSVLKVSKEKLKDKGVKSIFERVTTLEREGIKVGRNEMYEVLRNSFFRAFPLDEGELTEYELELVEKLIEERYGNDKWNFQKLEHHHHHH
- soluble on expression in E. coli: soluble

Sequence: MAHIIRRVSIKDVENFISMLAKIYDESPYMFYTPGEYDPSVTSASKQLEEYITSPHKVIFVAESDEQLVGFAFVNTTPFQRIKHVAKIDLGVKKLYQHRGIGQALLDAIMAWCLNNQIHRIEANVPLNNQPALELFKSADFQIEGVLKDKLFIDGKYYDDYMMAKILN
- soluble on expression in E. coli: soluble

Sequence: MESIGLVIVSHSKHIAEGVVELISKVAKDVPITYVRGTEGGGIGTSFEQVDRVVSENPADTLLAFFDLGSAKMNLKMVTDFSDKSIIINRVPIVEGAYNAAALLQAGAELSVIQTQLAELEINK
- soluble on expression in E. coli: not soluble

Sequence: MGSDKIHHHHHHMTEEINYFWLNCGYNRWNHNEPLVGQTALFESGAHFNPTQGYRAFKKAKAGDQVIFYQVQTDSGLLGIGEIISVQSGAQNKIRVEFKFKETLKPLTTDYLKRSETLDFRMSNMRETLFNQIRESEFELIVSLGKGKSKIPRYFLLAETEAFEPGKNYTIFTHTFNGIKRNGYHFYTQLEVGDNIIIYNKYQNQSVIGIGEVSKHIHEKPPIPGRTNSTAIEIFYEKDIKPISLGHLNKHPKLKNLYFLQENAKQSIASMSQAQYDAILDMSMNNGIKHPFETVKKAELSTQNAEDDSLKPFVLLVVEQKGEGLKAAEELLQKTNANPVITSGHPDFTEDMLYGKYLPNESGALYYREGFITHLMPKKDKSYLVIDNFNRIDVDIFQTYINVLEGYEVTLPRYNKDGSMIKWSKNKDSFYHFNPNWHIVGITYDSIEKIKQKYSSQFLKYTRIVKVNHD
- soluble on expression in E. coli: not soluble

Sequence: MISLFSPCHLSAALLISALSIVPTNAAPSPVSSPFTVNATVLTGCVLGGGATDSSNFGSINFGNITSLATAINATSGLNAGTITIQCNGNPSVTLALNSGANMTGNISAGRHLLNSSTGEYLLYQIYQNSPRTLIWGDGSNGGATQVIATDGTLQQVILYAQLFASNTQPTAGVYLDTLLVTVTY
- soluble on expression in E. coli: not soluble

Sequence: MEQQKKTTIVLFSGDYDKAMAAYIIANGAAAYDQEVTIFHTFWGLNALRKDEYVNVKKTFIEKVFGRMMPRGADKMGLSKMNFAGMGPKMIKGIMKKHNTMPLPDLIDLAKEQGIKLVACQMTVDLLGLKEEEIMEGVEFAGVGAYLADASDGNVNLFI
- soluble on expression in E. coli: not soluble

Sequence: MTLDESCKILNIEESKGDLNMDKINNRFNYLFEVNDKEKGGSFYLQSKVYRAAERLKWELAQREK
- soluble on expression in E. coli: soluble

Sequence: GPGSMPWEVKADNAYGIDYNKLIDKFGCKLITKDMIERMERLTGQKAHHFFRRNIFLSHRDFEKILDVYEKGELFYLYTGRGPSSESLHVGHLVPFLFTKYLQDTFKVPLVIQLTDDEKFIFKSNLTLEETHNYAYENMKDIIACGFDPELTFIFTNLEYIAELYPDILRIEKKISCSQIKSIFGFKDSCNVGKFAFPAVQAAPAFSSSFPHIFGGRTDIHCLVPHAIDQDPYFRMVRDVAPRLGYLKPSSIHSIFLPSLQGSQTKMSASVQNSSIFVNDNEESIRNKIMKYAFSGGQATEEEQRRLGANLDVDVSWQYLRFLMEDDEKLEEIGKKYSSGEMLSGEIKSILVQELVKLTKNHQKNREAINDDVIAKFTNKSREQLLKLFINKK
- soluble on expression in E. coli: soluble
